Results taken from article PMC6536502, “Structural insights into DNA recognition by AimR of the arbitrium communication system in the SPbeta phage” (Cell Discovery, 2019).
Substitutions are numbered along the chain they refer to.

What was measured:
Details in all cases: protein: recombinant; tags: 6xHis removed by drICE; chain copies: 2
AimR K120D = target: T1, AimR K120D (Bacillus phage SPbeta, UniProt O64094 1-386, K120D); test: EMSA; EMSA: 25 mM Tris-HCl pH 8.0, 150 mM NaCl, 5 mM MgCl2, 5 mM DTT, 0.1 mg/ml BSA, 10% glycerol, 50 ug/ml salmon sperm DNA, 4 C, 15 min; smFRET: 20 mM phosphate pH
T1 sequence: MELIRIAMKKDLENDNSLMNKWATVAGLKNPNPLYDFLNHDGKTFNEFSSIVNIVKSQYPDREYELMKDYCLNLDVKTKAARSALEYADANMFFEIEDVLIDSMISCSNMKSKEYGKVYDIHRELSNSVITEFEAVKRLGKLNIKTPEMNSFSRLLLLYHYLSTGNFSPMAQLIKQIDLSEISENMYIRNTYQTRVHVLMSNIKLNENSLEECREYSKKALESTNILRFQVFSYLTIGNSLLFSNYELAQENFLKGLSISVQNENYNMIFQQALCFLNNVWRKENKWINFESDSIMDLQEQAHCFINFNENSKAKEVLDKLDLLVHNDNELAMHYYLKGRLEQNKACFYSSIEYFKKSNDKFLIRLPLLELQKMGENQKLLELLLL

AimR N30A = target: T2, AimR N30A (Bacillus phage SPbeta, UniProt O64094 1-386, N30A); test: as above
T2 sequence: T1 sequence with N30A, D120K

AimR T44D = target: T3, AimR T44D (Bacillus phage SPbeta, UniProt O64094 1-386, T44D); test: EMSA; 5 mM Mg2+; EMSA: 25 mM Tris-HCl pH 8.0, 150 mM NaCl, 5 mM MgCl2, 5 mM DTT, 0.1 mg/ml BSA, 10% glycerol, 50 ug/ml salmon sperm DNA, 4 C, 15 min; smFRET: 20 mM phosphate pH
T3 sequence: T1 sequence with T44D, D120K

B1: 31 bp aimX-upstream palindromic DNA (dsDNA)
DNA 1: ACTTAAATATTAGGTTTTAATAACATCTAGT
DNA 2: ACTAGATGTTATTAAAACCTAATATTTAAGT
binding result (AimR K120D): binds | binding result (AimR N30A): binds | binding signal (AimR T44D): 11 fold lower affinity than WT AimR
